# According to US20260070983A1:
# Legend:
# human PD-1 (human) = human PD-1 (human) (UniProt Q15116); assay: cell-based or functional assay
# human PD-1 ECD (human) = assay: SPR, 37 °C
# human PD-1 ECD (human), sequence (Q15116 25-170): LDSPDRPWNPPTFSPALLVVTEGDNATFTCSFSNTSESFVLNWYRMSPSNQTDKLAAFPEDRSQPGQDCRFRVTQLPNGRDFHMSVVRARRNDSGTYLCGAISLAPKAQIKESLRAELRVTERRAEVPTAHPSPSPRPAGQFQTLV
# human PD-1 (human), sequence (Q15116 25-288): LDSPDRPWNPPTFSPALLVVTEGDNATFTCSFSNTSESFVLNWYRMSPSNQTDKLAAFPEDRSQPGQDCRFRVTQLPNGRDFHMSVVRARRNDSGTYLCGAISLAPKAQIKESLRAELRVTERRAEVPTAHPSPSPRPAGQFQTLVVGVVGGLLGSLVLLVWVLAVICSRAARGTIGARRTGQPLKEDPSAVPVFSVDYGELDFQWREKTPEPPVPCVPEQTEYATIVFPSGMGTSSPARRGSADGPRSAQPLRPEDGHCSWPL
binder,measurement,setting,value
"G2 IgG1 mAb (antibody, INN chains, looked up, V domains shown, IgG1) VH: QVQLVQSGAEVKKPGASVKVSCKVSGYSLSKYDMSWVRQAPGKGLEWMGIIYTSGYTDYAQKFQGRVTMTEDTSTDTAYMELSSLRSEDTAVYYCATGNPYYTNGFNSWGQGTLVTVSS VL: DIQMTQSPSSLSASVGDRVTITCQASQSPNNLLAWYQQKPGKAPKLLIYGASDLPSGVPSRFSGSGSGTDFTLTISSLQPEDFATYYCQNNYYVGPVSYAFGGGTKVEIK","% ADCC Activated T cells, mean",human PD-1 (human),3.3%
same,"% ADCC PBMC, mean",human PD-1 (human),0.2%
same,"% Inhibition Proliferation, mean (SEB assay)",human PD-1 (human),36.9%
same,"% PD-1 Expression Inhibition, mean (SEB assay)",human PD-1 (human),50.8%
same,"% T cell Proliferation Inhibition, mean (SEB assay)",human PD-1 (human),56.5%
same,Kd,human PD-1 ECD (human),2.3 nM
